Measured values as given in the Immune Epitope Database (IEDB).

Assays:
HLA-A*11:01 [1] = assay: IEDB peptide-MHC binding, purified MHC/competitive/fluorescence; ≥ and ≤ were set here for values at or beyond the usual limits of such assays
HLA-A*02:01 [2] = assay: IEDB peptide-MHC binding, purified MHC/direct/fluorescence; filed as Kd, often an IC50 or EC50 that approximates it; ≥ and ≤ were set here for values at or beyond the usual limits of such assays
HLA-A*03:01 [3] = assay: as above
HLA-A*11:01 [4] = assay: as above
HLA-A*24:03 = assay: as above; details: source organism: Giardia lamblia ATCC 50803
HLA-A*26:01 [5] = assay: as above
HLA-A*31:01 = assay: as above
HLA-A*69:01 = assay: as above
HLA-B*07:02 [6] = assay: as above
HLA-B*08:01 = assay: as above
HLA-B*15:01 [7] = assay: as above
HLA-B*27:05 = assay: as above
HLA-B*40:01 = assay: as above
HLA-B*44:02 = assay: as above
HLA-B*07:02 [8] = assay: IEDB peptide-MHC binding, purified MHC/competitive/radioactivity; filed as Kd, often an IC50 or EC50 that approximates it; ≥ and ≤ were set here for values at or beyond the usual limits of such assays; details: source organism: Dengue virus 2 Jamaica/1409/1983
HLA-B*51:01 [9] = assay: as above; details: source organism: Dengue virus 2 Jamaica/1409/1983
HLA-A*24:02 = assay: IEDB peptide-MHC binding, purified MHC/competitive/fluorescence; ≥ and ≤ were set here for values at or beyond the usual limits of such assays
HLA-A*32:01 = assay: IEDB peptide-MHC binding, purified MHC/competitive/radioactivity; filed as Kd, often an IC50 or EC50 that approximates it; ≥ and ≤ were set here for values at or beyond the usual limits of such assays; details: source organism: Dengue virus 3 Sri Lanka/1266/2000
HLA-B*15:01 [10] = assay: as above
HLA-B*35:01 = assay: as above
HLA-A*03:01 [11] = assay: IEDB peptide-MHC binding, purified MHC/competitive/fluorescence; filed as Kd, often an IC50 or EC50 that approximates it; ≥ and ≤ were set here for values at or beyond the usual limits of such assays
HLA-A*30:02 = assay: IEDB peptide-MHC binding, purified MHC/competitive/radioactivity; filed as Kd, often an IC50 or EC50 that approximates it; ≥ and ≤ were set here for values at or beyond the usual limits of such assays; details: source organism: Dengue virus 4 Philippines/H241/1956
HLA-A*26:01 [12] = assay: IEDB peptide-MHC binding, purified MHC/competitive/fluorescence; filed as Kd, often an IC50 or EC50 that approximates it; ≥ and ≤ were set here for values at or beyond the usual limits of such assays; details: source organism: Bacillus anthracis str. A0488
HLA-B*18:01 = assay: IEDB peptide-MHC binding, purified MHC/direct/fluorescence; filed as Kd, often an IC50 or EC50 that approximates it; ≥ and ≤ were set here for values at or beyond the usual limits of such assays; details: source organism: dengue virus type 1
HLA-A*01:01 [13] = assay: IEDB peptide-MHC binding, purified MHC/competitive/radioactivity; filed as Kd, often an IC50 or EC50 that approximates it; ≥ and ≤ were set here for values at or beyond the usual limits of such assays; details: source organism: Dengue virus 4 Philippines/H241/1956
HLA-B*53:01 = assay: as above; details: source organism: Dengue virus 4 Philippines/H241/1956
HLA-B*57:01 = assay: as above
HLA-B*51:01 [14] = assay: IEDB peptide-MHC binding, purified MHC/competitive/fluorescence; filed as Kd, often an IC50 or EC50 that approximates it; ≥ and ≤ were set here for values at or beyond the usual limits of such assays; details: source organism: Entamoeba histolytica HM-1:IMSS
HLA-A*01:01 [15] = assay: IEDB peptide-MHC binding, purified MHC/direct/fluorescence; filed as Kd, often an IC50 or EC50 that approximates it; ≥ and ≤ were set here for values at or beyond the usual limits of such assays
HLA-B*58:01 = assay: as above
HLA-A*02:01 [16] = assay: IEDB peptide-MHC binding, purified MHC/competitive/fluorescence; ≥ and ≤ were set here for values at or beyond the usual limits of such assays
[17] = source organism: Vaccinia virus
[18] = source organism: Giardia lamblia ATCC 50803
[19] = source organism: Dengue virus 3 Sri Lanka/1266/2000
[20] = source organism: Dengue virus 4 Philippines/H241/1956
[21] = source organism: Dengue virus 3 Martinique/1243/1999
[22] = source organism: Zaire ebolavirus
[23] = source organism: Campylobacter jejuni RM1221
[24] = source organism: Vaccinia virus WR
[25] = source organism: Shigella flexneri

Q: Which IC50 (HLA-A*11:01 [1]; [17]) does the source give for NNIGIEYSK here?
A: ≥ 173 µM

Q: RTDPVIDNI was tested. Which Kd (HLA-A*02:01 [2]; [18]) did it give?
A: ≥ 20 µM

Q: And the Kd (HLA-A*03:01 [3]; [18])?
A: ≥ 20 µM

Q: And the Kd (HLA-A*11:01 [4]; [18])?
A: ≥ 20 µM

Q: What about the Kd (HLA-A*24:03) of the same sequence?
A: 2.75 µM

Q: What about the Kd (HLA-A*26:01 [5]; [18]) of the same sequence?
A: ≥ 20 µM

Q: And the Kd (HLA-A*31:01; [18])?
A: ≥ 20 µM

Q: And the Kd (HLA-A*69:01; [18])?
A: ≥ 20 µM

Q: And the Kd (HLA-B*07:02 [6]; [18])?
A: ≥ 20 µM

Q: What about the Kd (HLA-B*08:01; [18]) of the same sequence?
A: ≥ 20 µM

Q: What about the Kd (HLA-B*15:01 [7]; [18]) of the same sequence?
A: ≥ 20 µM

Q: What about the Kd (HLA-B*27:05; [18]) of the same sequence?
A: ≥ 20 µM

Q: And the Kd (HLA-B*40:01; [18])?
A: ≥ 20 µM

Q: And the Kd (HLA-B*44:02; [18])?
A: ≥ 20 µM

Q: With TPQDNQLTYV as the sequence, how does the Kd (HLA-B*07:02 [8]) read?
A: 1.33 µM

Q: And the Kd (HLA-B*51:01 [9])?
A: 16.4 µM

Q: KDVSYNDYF was tested. Which IC50 (HLA-A*24:02; [17]) did it give?
A: 41.4 µM

Q: How did the Kd (HLA-A*32:01) turn out when MILPAALAF was run?
A: 0.0295 µM

Q: And the Kd (HLA-B*15:01 [10]; [19])?
A: 0.00687 µM

Q: What about the Kd (HLA-B*35:01; [19]) of the same sequence?
A: 0.394 µM

Q: With MTIASVPTSR as the sequence, how does the Kd (HLA-A*03:01 [11]; source organism: Influenza A virus (A/equine/California/8560/2002(H3N8))) read?
A: 1.01 µM

Q: How did the Kd (HLA-A*30:02) turn out when MAVFKMSPGY was run?
A: 0.501 µM

Q: What about the Kd (HLA-B*35:01; [20]) of the same sequence?
A: 0.667 µM

Q: How did the Kd (HLA-A*26:01 [12]) turn out when NTVKSFLNF was run?
A: 0.269 µM

Q: For APTRVVAAEM, which Kd (HLA-B*35:01; [21]) is on record?
A: 0.0203 µM

Q: For NFAEGVIAF, which IC50 (HLA-A*24:02; source organism: Sudan ebolavirus) is on record?
A: 4.18 µM

Q: SEHTGREIV was tested. Which Kd (HLA-B*18:01) did it give?
A: 2.04 µM

Q: What about the Kd (HLA-B*44:02; source organism: dengue virus type 1) of the same sequence?
A: ≥ 20 µM

Q: How did the Kd (HLA-A*01:01 [13]) turn out when FALLAGFMAY was run?
A: 13.5 µM

Q: What about the Kd (HLA-B*15:01 [10]; [20]) of the same sequence?
A: 0.00641 µM

Q: What about the Kd (HLA-B*35:01; [20]) of the same sequence?
A: 0.0133 µM

Q: And the Kd (HLA-B*53:01)?
A: 3.15 µM

Q: For EPKEGTKKLM, which Kd (HLA-B*35:01; source organism: Dengue virus 2 Jamaica/1409/1983) is on record?
A: ≥ 54.4 µM

Q: With KTSLCLMMIL as the sequence, how does the Kd (HLA-B*57:01; [19]) read?
A: 0.00968 µM

Q: CPLNQLEQF was tested. Which Kd (HLA-B*51:01 [14]) did it give?
A: ≥ 20 µM

Q: VVLDLFARK was tested. Which Kd (HLA-A*03:01 [11]; source organism: Shigella flexneri 2a str. 301) did it give?
A: 0.175 µM

Q: How did the IC50 (HLA-A*24:02; [22]) turn out when DAVLYYHMM was run?
A: 3.14 µM

Q: How did the Kd (HLA-B*57:01; [21]) turn out when WFSRENSYSG was run?
A: 7 µM

Q: How did the Kd (HLA-A*01:01 [15]; [23]) turn out when IYDYLRLLY was run?
A: 5.13 µM

Q: And the Kd (HLA-A*02:01 [2]; [23])?
A: ≥ 20 µM

Q: And the Kd (HLA-A*03:01 [3]; [23])?
A: ≥ 20 µM

Q: What about the Kd (HLA-A*31:01; [23]) of the same sequence?
A: ≥ 20 µM

Q: What about the Kd (HLA-A*69:01; [23]) of the same sequence?
A: ≥ 20 µM

Q: What about the Kd (HLA-B*07:02 [6]; [23]) of the same sequence?
A: ≥ 20 µM

Q: And the Kd (HLA-B*08:01; source organism: Clostridium botulinum NCTC 2916)?
A: ≥ 20 µM

Q: And the Kd (HLA-B*15:01 [7]; [23])?
A: ≥ 20 µM

Q: What about the Kd (HLA-B*27:05; [23]) of the same sequence?
A: ≥ 20 µM

Q: And the Kd (HLA-B*40:01; [23])?
A: ≥ 20 µM

Q: And the Kd (HLA-B*44:02; [23])?
A: ≥ 20 µM

Q: And the Kd (HLA-B*58:01; [23])?
A: ≥ 20 µM

Q: What does the source list for EYRFLVINR?
A: IC50 (HLA-A*11:01 [1]; [24]): ≥ 490 µM; IC50 (HLA-A*24:02; [24]): 57.6 µM

Q: Which Kd (HLA-B*57:01; source organism: Dengue virus 1 Brazil/97-11/1997) does the source give for RASFIEVKTC here?
A: 0.0537 µM

Q: What does the source list for IILFQRTFS?
A: IC50 (HLA-A*02:01 [16]; [22]): ≥ 81.4 µM; IC50 (HLA-A*24:02; [22]): ≥ 294 µM

Q: With VMLIGIEIL as the sequence, how does the IC50 (HLA-A*02:01 [16]; [24]) read?
A: 0.161 µM

Q: And the IC50 (HLA-A*24:02; [24])?
A: 37.6 µM

Q: For VVISKKDTY, which Kd (HLA-A*01:01 [15]; [25]) is on record?
A: ≥ 20 µM

Q: And the Kd (HLA-A*02:01 [2]; [25])?
A: ≥ 20 µM

Q: And the Kd (HLA-A*03:01 [3]; [25])?
A: ≥ 20 µM

Q: What about the Kd (HLA-A*11:01 [4]; [25]) of the same sequence?
A: 2.96 µM

Q: And the Kd (HLA-A*26:01 [5]; [25])?
A: 6.93 µM

Q: And the Kd (HLA-A*31:01; [25])?
A: 5.5 µM

Q: And the Kd (HLA-A*69:01; [25])?
A: ≥ 20 µM

Q: And the Kd (HLA-B*07:02 [6]; [25])?
A: ≥ 20 µM

Q: What about the Kd (HLA-B*08:01; [25]) of the same sequence?
A: ≥ 20 µM

Q: And the Kd (HLA-B*15:01 [7]; [25])?
A: ≥ 20 µM

Q: What about the Kd (HLA-B*27:05; [25]) of the same sequence?
A: ≥ 20 µM

Q: And the Kd (HLA-B*40:01; [25])?
A: ≥ 20 µM

Q: What about the Kd (HLA-B*44:02; [25]) of the same sequence?
A: ≥ 20 µM

Q: And the Kd (HLA-B*58:01; [25])?
A: ≥ 20 µM
